One substance from article PMC4643347 can be followed below.

Assay [1] addresses ST50, outer-membrane protein of the multi-drug efflux system from Salmonella enterica serovar Typhi (Salmonella enterica serovar Typhi). Description: SEC; Superdex 200 10/30 GL; Tris 20 mM pH 7.5, NaCl 150 mM, β-DDM 0.2%; major fraction at about 220 kDa (trimer plus detergent micelle). In general terms: SEC sorts molecules by how far they enter the pores of the column.
For assay [2] the target is unchanged. Put plainly: crystal structure; ST50 crystallised by hanging-drop vapor diffusion; sodium acetate 100 mM pH 4.6, NaCl 86 mM, PEG 8000 10.4%, β-OG 0.4%, 18 °C; 2.98 Å; three protomers per asymmetric unit.

One may read the stoichiometry N as the number of molecules, sites or subunits per partner or assembly.

With “ST50, outer-membrane protein of the multi-drug efflux system from Salmonella enterica serovar Typhi (natural protein)”, the stoichiometry N in assay [1] and in assay [2] was 3 in each case.
